Assay [1] addresses human EGFR on cells (human) (UniProt P00533).
Assay [2] has the same target. This is another data set of the same source.
The target of assay [3] is human EGFRvIII on cells (human) (UniProt P00533).
For assay [4] the target is unchanged. Nature of the assay: FACS on CHO-K1-EGFRvIII 2G3 cells.
In assay [5] the target is human EGFR on cells (human) (UniProt P00533). This is another data set of the same source.
The target is the same in assay [6]. This is another data set of the same source.
Assay [7] shares this target. This is another data set of the same source.
The target of the next assay is Her2 protein (human) (UniProt P04626).
The target of assay [8] is human EGFR-His-tagged fusion protein (human) (UniProt P00533).
Assay [9] shares this target. This is another data set of the same source.
The target is the same in assay [10]. The source holds these as a separate data set.
Assay [11] has as its target human EGFR endogenously expressed on A431 cells (human) (UniProt P00533).
The target in assay [12] is cynomolgus monkey EGFR on HEK293T-monkey EGFR cells (cynomolgus monkey). Nature of the assay: FACS, HEK293T-monkey EGFR cells.
Assay [13] addresses murine EGFR protein (murine) (UniProt Q01279).
Assay [14] has as its target monkey EGFR protein (commercial, SB, catalog number 90285-C08H) (monkey). Nature of the assay: ELISA, coated monkey EGFR protein, antibody 1 nM. For orientation: In an ELISA, binding on a coated surface is turned into a signal by an enzyme label.
In assay [15] the target is murine EGFR protein (murine) (UniProt Q01279). This is another data set of the same source.
In assay [16] the target is monkey EGFR protein (commercial, SB, catalog number 90285-C08H) (monkey). Nature of the assay: ELISA, coated monkey EGFR protein, antibody 10 nM.
Assay [17] deals with murine EGFR protein (murine) (UniProt Q01279). This is another data set of the same source.
Assay [18] has the same target. The source holds these as a separate data set.
Assay [19] concerns the target monkey EGFR protein (commercial, SB, catalog number 90285-C08H) (monkey). Briefly: ELISA, coated monkey EGFR protein, antibody 0.1 nM.
The target is the same in assay [20]. Nature of the assay: ELISA, coated monkey EGFR protein, antibody 100 nM.
The target of assay [21] is human EGFRvIII-His tag protein (extracellular domain Leu25-Ser378) (human) (UniProt P00533).
The target in assay [22] is murine EGFR protein (murine) (UniProt Q01279). The source holds these as a separate data set.
Assay [23] has as its target monkey EGFR protein (commercial, SB, catalog number 90285-C08H) (monkey). Nature of the assay: ELISA, coated monkey EGFR protein, antibody 0.01 nM.
The target of assay [24] is cynomolgus monkey EGFR on HEK293T-monkey EGFR cells (cynomolgus monkey). Briefly: FACS, HEK293T-monkey EGFR cells (specificity assay). For orientation: A flow cytometer gives signals particle by particle.
The target in assay [25] is human EGFRvIII-His tag protein (extracellular domain Leu25-Ser378) (human) (UniProt P00533). The source holds these as a separate data set.
Assay [26] has as its target murine EGFR protein (murine) (UniProt Q01279). This is another data set of the same source.
Assay [27] addresses monkey EGFR protein (commercial, SB, catalog number 90285-C08H) (monkey). Briefly: ELISA, coated monkey EGFR protein, antibody 0.001 nM.
In assay [28] the target is human EGFRvIII-His tag protein (extracellular domain Leu25-Ser378) (human) (UniProt P00533). The source holds these as a separate data set.
Assay [29] shares this target. This is another data set of the same source.
The target in assay [30] is murine EGFR protein (murine) (UniProt Q01279). The source holds these as a separate data set.
In assay [31] the target is monkey EGFR protein (commercial, SB, catalog number 90285-C08H) (monkey). Nature of the assay: ELISA, coated monkey EGFR protein, antibody 0.0001 nM.
For assay [32], the target named is human EGFRvIII-His tag protein (extracellular domain Leu25-Ser378) (human) (UniProt P00533). The source holds these as a separate data set.
Assay [33] shares this target. This is another data set of the same source.
For assay [34] the target is unchanged. This is another data set of the same source.
The target in assay [35] is murine EGFR protein (murine) (UniProt Q01279). The source holds these as a separate data set.
Assay [36] addresses monkey EGFR protein (commercial, SB, catalog number 90285-C08H) (monkey). Nature of the assay: ELISA, coated monkey EGFR protein, antibody 0 nM (blank).
Assay [37] deals with human EGFRvIII-His tag protein (extracellular domain Leu25-Ser378) (human) (UniProt P00533). The source holds these as a separate data set.

Where two headings read alike, the source gives them in different places.

In the case of anti-hel-hIgG1 (antibody), the Average fluorescence intensity in [1] is 74; in assay [3] it was 35.4; in [4], 35.4; in assay [5] it was 1560; in assay [6], 1560; in assay [7], 1560. Further, in assay [2], the Max MFI amounted to 159. Further, the OD450 came to 0.21 with Her2 protein (human), 0.71 in [8], 0.05 in assay [9] and 0.07 in [10].
For “anti-hel-hIgG1 (negative control antibody against hen egg lysozyme)”, the Max MFI was 199 in assay [11], 240 in [12] and 141 in assay [24]. Also, the OD450 in [13] is 0.12; in assay [14] it was 0.21; in assay [15] it was 0.06; in assay [16], 0.13; in [17], 0.06; in assay [18], 1.16. For the same substance, the OD450 was found to be 0.09 in assay [19]; 0.71 in assay [20]; 0.22 in assay [21]; 0.06 in assay [22]; 0.19 in [23]; 0.13 in [25]. Further, the OD450 in assay [26] stood at 0.05; in assay [27], 0.09; in assay [28] it was 0.09; in assay [29], 0.6; in assay [30] it was 0.05; in assay [31], 0.06. For the same substance, the OD450 turned out to be 0.19 in assay [32]; 0.08 in [33]; 0.07 in [34]; 0.06 in assay [35]; 0.07 in assay [36]; 0.07 in [37].
